Test results: patent publication US20250002610A1 (Genmab, published 2025)

Key:
[1] = target: T1, human FAPα (Fibroblast activation protein alpha), cell surface expressed (human, UniProt Q12884 1-760); assay: flow cytometry, Expi293F cells expressing human FAPα, average ± SEM
T1 construct: Endogenous on human lung fibroblasts and CAFs
T1 sequence: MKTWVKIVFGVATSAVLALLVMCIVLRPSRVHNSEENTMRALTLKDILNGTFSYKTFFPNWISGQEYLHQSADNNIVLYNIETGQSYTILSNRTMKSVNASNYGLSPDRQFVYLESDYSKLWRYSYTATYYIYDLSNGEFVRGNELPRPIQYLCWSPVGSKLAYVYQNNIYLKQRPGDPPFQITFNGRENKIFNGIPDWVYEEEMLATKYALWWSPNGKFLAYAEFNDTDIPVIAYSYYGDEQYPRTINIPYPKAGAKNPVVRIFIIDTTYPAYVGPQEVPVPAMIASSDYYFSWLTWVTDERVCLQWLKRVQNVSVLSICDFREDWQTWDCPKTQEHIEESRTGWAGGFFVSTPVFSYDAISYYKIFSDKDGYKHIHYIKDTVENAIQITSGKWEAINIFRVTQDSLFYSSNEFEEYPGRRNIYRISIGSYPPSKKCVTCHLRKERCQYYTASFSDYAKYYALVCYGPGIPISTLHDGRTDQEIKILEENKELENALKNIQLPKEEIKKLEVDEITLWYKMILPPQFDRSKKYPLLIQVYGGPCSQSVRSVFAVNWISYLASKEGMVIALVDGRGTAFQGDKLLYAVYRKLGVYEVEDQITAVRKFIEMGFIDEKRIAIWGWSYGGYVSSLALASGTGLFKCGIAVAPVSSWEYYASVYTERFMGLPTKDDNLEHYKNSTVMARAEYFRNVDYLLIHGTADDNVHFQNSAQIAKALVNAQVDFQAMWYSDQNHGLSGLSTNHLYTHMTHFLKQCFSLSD
Protocol: Binding of BisG1-FAPα-FERL/DR4-FERR, BisG1-FAPα-FEAL/b12-FEAR and IgG1-FAPα-FERL to FAPα of species commonly used for nonclinical toxicology studies was assessed by flow cytometry using Expi293F cells transiently expressing FAPα from different animal species. IgG1-b12 was included as negative control.
Expi293F cells expressing recombinant FAPα from various species (human, cynomolgus monkey, dog, pig, rat or mouse) were seeded (20,000 cells/well) in 96-Well round bottom plates (Greiner Bio-one, Cat #650101). Antibody dilutions were prepared using FACS buffer, consisting of PBS (Capricorn Scientific, Cat #PBS-10XA, diluted to 1×PBS in distilled water)+1% BSA (Roche, Cat #10735086001)+0.02% Sodium Azide (Bio-World, Cat #41920044-3). Plates were centrifuged, supernatant was removed, and cells were resuspended in 100 μL of antibody dilutions (concentration range 30-0.00017 μg/mL with three-fold serial dilutions using FACS buffer) of BisG1-FAPα-FERL/DR4-FERR, BisG1-FAPα-FEAL/b12-FEAR, IgG1-FAPα-FERL and IgG1-b12 and incubated for 30 min at 4° C. […] After 30 min incubation at 4° C., cells were washed with FACS buffer and resuspended in FACS buffer supplemented with TO-PRO-3 Iodide viability marker (Invitrogen, Cat #T3605, diluted 1:4,000). Antibody binding to viable cells (gMFI of PE on TO-PRO-3 negative cells) was analyzed by flow cytometry on a FACS Celesta and FACS_Diva software (first two experiments) or iQue® 3 and FlowJo software (last experiment). gMFI was determined and visualized using GraphPad Prism. Binding curves were analyzed using nonlinear regression analysis. The concentration (pg/mL) at which 50% of the maximal effect was observed (EC₅₀) was derived from the fitted curves.

[2] = target: T2, human DR4 (Death Receptor 4), cell surface expressed on human tumor cell lines (human, UniProt O00220 24-468); assay: flow cytometry, MDA-MB-231 cells, N = 2
T2 construct: also called TNFRSF10A; TRAIL-R1
T2 sequence: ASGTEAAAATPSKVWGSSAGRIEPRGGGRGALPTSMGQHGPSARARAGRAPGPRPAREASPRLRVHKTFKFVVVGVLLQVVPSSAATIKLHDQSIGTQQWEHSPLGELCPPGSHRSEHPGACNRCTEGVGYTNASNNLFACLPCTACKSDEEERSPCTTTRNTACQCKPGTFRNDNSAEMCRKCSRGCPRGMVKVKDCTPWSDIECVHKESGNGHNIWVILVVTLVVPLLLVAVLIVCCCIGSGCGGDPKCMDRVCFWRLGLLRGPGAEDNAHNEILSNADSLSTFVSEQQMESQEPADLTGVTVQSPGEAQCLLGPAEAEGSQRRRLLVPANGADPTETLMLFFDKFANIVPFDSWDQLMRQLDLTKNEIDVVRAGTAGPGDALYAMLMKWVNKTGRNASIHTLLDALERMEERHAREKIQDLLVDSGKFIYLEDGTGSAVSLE

[3] = target: human DR4 with death domain deletion on ExpiCHO-S cells (human); assay: flow cytometry, ExpiCHO-S cells expressing human DR4, n = 1
Protocol: Binding of BisG1-FAPα-FERL/DR4-FERR, BisG1-DR4-FEAL/b12-FEAR and IgG1-DR4-FERR to DR4 of various species commonly used for nonclinical toxicology studies was assessed by flow cytometry using ExpiCHO-S cells transiently expressing DR4 from different animal species. In contrast to other species, rodents only express one DR which has highest homology with human DR5. Therefore, ExpiCHO-S cells transiently expressing rat and mouse DR protein were used instead. All DR constructs lack the intracellular DD to avoid apoptosis of transfected cells upon DR(4) activation. IgG1-b12 was used as negative control.

Binder	EC50 [1] [µg/mL]	EC50 [2] [µg/mL]	EC50 [3] [µg/mL]	Max MFI (at 90 µg/mL) [2] [MFI]
BisG1-FAPα-FEAL/b12-FEAR (bispecific antibody, human IgG1, kappa, Fab-arm exchange of IgG1-FAPα-FEAL and IgG1-b12-FEAR) heavy 1: EVQLLESGGGLVQPGGSPRLSCEASGFTFSSYALSWVRQAPGKGLEWVSAISGSGGGRYYADSVKGRFTISRDNSKNTLFLQMNSLRAEDTAVYYCAKEGYSSSGTYWDHWGQGTLVTVSSASTKGPSVFPLAPSSKSTSGGTAALGCLVKDYFPEPVTVSWNSGALTSGVHTFPAVLQSSGLYSLSSVVTVPSSSLGTQTYICNVNHKPSNTKVDKRVEPKSCDKTHTCPPCPAPEFEGGPSVFLFPPKPKDTLMISRTPEVTCVVVAVSHEDPEVKFNWYVDGVEVHNAKTKPREEQYNSTYRVVSVLTVLHQDWLNGKEYKCKVSNKALPAPIEKTISKAKGQPREPQVYTLPPSREEMTKNQVSLTCLVKGFYPSDIAVEWESNGQPENNYKTTPPVLDSDGSFLLYSKLTVDKSRWQQGNVFSCSVMHEALHNHYTQKSLSLSPG light 1: AIQMTQSPSSVSASVGDRVTITCRASQGVSSWLAWYQQKPGRAPKLLIYVASTLQSGVPSRFSGSGSGTDFTLTINSLQPEDFATYYCQQANSFPPTFGQGTRLEMKRTVAAPSVFIFPPSDEQLKSGTASVVCLLNNFYPREAKVQWKVDNALQSGNSQESVTEQDSKDSTYSLSSTLTLSKADYEKHKVYACEVTHQGLSSPVTKSFNRGEC heavy 2: QVQLVQSGAEVKKPGASVKVSCQASGYRFSNFVIHWVRQAPGQRFEWMGWINPYNGNKEFSAKFQDRVTFTADTSANTAYMELRSLRSADTAVYYCARVGPYSWDDSPQDNYYMDVWGKGTTVIVSSASTKGPSVFPLAPSSKSTSGGTAALGCLVKDYFPEPVTVSWNSGALTSGVHTFPAVLQSSGLYSLSSVVTVPSSSLGTQTYICNVNHKPSNTKVDKRVEPKSCDKTHTCPPCPAPEFEGGPSVFLFPPKPKDTLMISRTPEVTCVVVAVSHEDPEVKFNWYVDGVEVHNAKTKPREEQYNSTYRVVSVLTVLHQDWLNGKEYKCKVSNKALPAPIEKTISKAKGQPREPQVYTLPPSREEMTKNQVSLTCLVKGFYPSDIAVEWESNGQPENNYKTTPPVLDSDGSFFLYSRLTVDKSRWQQGNVFSCSVMHEALHNHYTQKSLSLSPG light 2: EIVLTQSPGTLSLSPGERATFSCRSSHSIRSRRVAWYQHKPGQAPRLVIHGVSNRASGISDRFSGSGSGTDFTLTITRVEPEDFALYYCQVYGASSYTFGQGTKLERKRTVAAPSVFIFPPSDEQLKSGTASVVCLLNNFYPREAKVQWKVDNALQSGNSQESVTEQDSKDSTYSLSSTLTLSKADYEKHKVYACEVTHQGLSSPVTKSFNRGEC	0.3	–	–	–
IgG1-FAPα-FERL (antibody, Bivalent monoclonal IgG1 kappa) heavy: EVQLLESGGGLVQPGGSPRLSCEASGFTFSSYALSWVRQAPGKGLEWVSAISGSGGGRYYADSVKGRFTISRDNSKNTLFLQMNSLRAEDTAVYYCAKEGYSSSGTYWDHWGQGTLVTVSSASTKGPSVFPLAPSSKSTSGGTAALGCLVKDYFPEPVTVSWNSGALTSGVHTFPAVLQSSGLYSLSSVVTVPSSSLGTQTYICNVNHKPSNTKVDKRVEPKSCDKTHTCPPCPAPEFERGPSVFLFPPKPKDTLMISRTPEVTCVVVDVSHEDPEVKFNWYVDGVEVHNAKTKPREEQYNSTYRVVSVLTVLHQDWLNGKEYKCKVSNKALPAPIEKTISKAKGQPREPQVYTLPPSREEMTKNQVSLTCLVKGFYPSDIAVEWESNGQPENNYKTTPPVLDSDGSFLLYSKLTVDKSRWQQGNVFSCSVMHEALHNHYTQKSLSLSPG light: AIQMTQSPSSVSASVGDRVTITCRASQGVSSWLAWYQQKPGRAPKLLIYVASTLQSGVPSRFSGSGSGTDFTLTINSLQPEDFATYYCQQANSFPPTFGQGTRLEMKRTVAAPSVFIFPPSDEQLKSGTASVVCLLNNFYPREAKVQWKVDNALQSGNSQESVTEQDSKDSTYSLSSTLTLSKADYEKHKVYACEVTHQGLSSPVTKSFNRGEC	0.18	–	–	–
IgG1-DR4-FERR (antibody, V domains shown, Bivalent monoclonal IgG1 lambda) VH: QVQLQESGPGLVKPSGTLSLTCAVSGGSISSYSWWSWIRQPPGKGLEWIGELYHSGSTNYNPSLKSRVTISVDKSKNQFSLKLRSVTAADTAVYYCVRGVATIDYWGQGTLVTVSS VL: QSALTQPPSASGSPGQSVTISCTGTSSDVGGYNFVSWYQQDPGKAPKLLIYEVTKRPSGVPDRFSGSKSGNTASLTVSGLQAEDEADYYCSSYAGSNNVMFGGGTKLTVLG	–	0.26	0.33	–
BisG1-b12-FERL/DR4-FERR (bispecific antibody, human IgG1, kappa, lambda, Fab-arm exchange of IgG1-b12-FERL and IgG1-DR4-FERR; also called bsIgG1-ctrl-FERLxDR4-FERR) heavy 1: QVQLVQSGAEVKKPGASVKVSCQASGYRFSNFVIHWVRQAPGQRFEWMGWINPYNGNKEFSAKFQDRVTFTADTSANTAYMELRSLRSADTAVYYCARVGPYSWDDSPQDNYYMDVWGKGTTVIVSSASTKGPSVFPLAPSSKSTSGGTAALGCLVKDYFPEPVTVSWNSGALTSGVHTFPAVLQSSGLYSLSSVVTVPSSSLGTQTYICNVNHKPSNTKVDKRVEPKSCDKTHTCPPCPAPEFERGPSVFLFPPKPKDTLMISRTPEVTCVVVDVSHEDPEVKFNWYVDGVEVHNAKTKPREEQYNSTYRVVSVLTVLHQDWLNGKEYKCKVSNKALPAPIEKTISKAKGQPREPQVYTLPPSREEMTKNQVSLTCLVKGFYPSDIAVEWESNGQPENNYKTTPPVLDSDGSFLLYSKLTVDKSRWQQGNVFSCSVMHEALHNHYTQKSLSLSPG light 1: EIVLTQSPGTLSLSPGERATFSCRSSHSIRSRRVAWYQHKPGQAPRLVIHGVSNRASGISDRFSGSGSGTDFTLTITRVEPEDFALYYCQVYGASSYTFGQGTKLERKRTVAAPSVFIFPPSDEQLKSGTASVVCLLNNFYPREAKVQWKVDNALQSGNSQESVTEQDSKDSTYSLSSTLTLSKADYEKHKVYACEVTHQGLSSPVTKSFNRGEC heavy 2: QVQLQESGPGLVKPSGTLSLTCAVSGGSISSYSWWSWIRQPPGKGLEWIGELYHSGSTNYNPSLKSRVTISVDKSKNQFSLKLRSVTAADTAVYYCVRGVATIDYWGQGTLVTVSSASTKGPSVFPLAPSSKSTSGGTAALGCLVKDYFPEPVTVSWNSGALTSGVHTFPAVLQSSGLYSLSSVVTVPSSSLGTQTYICNVNHKPSNTKVDKRVEPKSCDKTHTCPPCPAPEFERGPSVFLFPPKPKDTLMISRTPEVTCVVVDVSHEDPEVKFNWYVDGVEVHNAKTKPREEQYNSTYRVVSVLTVLHQDWLNGKEYKCKVSNKALPAPIEKTISKAKGQPREPQVYTLPPSREEMTKNQVSLTCLVKGFYPSDIAVEWESNGQPENNYKTTPPVLDSDGSFFLYSRLTVDKSRWQQGNVFSCSVMHEALHNHYTQKSLSLSPG light 2: QSALTQPPSASGSPGQSVTISCTGTSSDVGGYNFVSWYQQDPGKAPKLLIYEVTKRPSGVPDRFSGSKSGNTASLTVSGLQAEDEADYYCSSYAGSNNVMFGGGTKLTVLGQPKAAPSVTLFPPSSEELQANKATLVCLISDFYPGAVTVAWKADSSPVKAGVETTTPSKQSNNKYAASSYLSLTPEQWKSHRSYSCQVTHEGSTVEKTVAPTECS	–	0.95	–	7840
